Data as given in patent publication US20200199204A1.

Assays:
Test in all cases: cell-based or functional assay
[1] = target: HIV-1 Env of DU422.01 (HIV-1)
[2] = target: HIV-1 Env of KER2008.12 (HIV-1)
[3] = target: HIV-1 Env of RHPA.7 (HIV-1)
[4] = target: HIV-1 Env of KER2018.11 (HIV-1)
[5] = target: HIV-1 Env of Q769.d22 (HIV-1)
[6] = target: HIV-1 Env of DU172.17 (HIV-1)
[7] = target: HIV-1 Env of CAP256.PI (HIV-1)
[8] = target: HIV-1 Env of BG505.w6m (HIV-1)
[9] = target: HIV-1 Env of ZM53.12 (HIV-1)
[10] = target: HIV-1 Env of 96ZM651.02 (HIV-1)
[11] = target: HIV-1 Env of ZM233.6 (HIV-1)
[12] = target: HIV-1 Env of CAP210.E8 (HIV-1)
[13] = target: HIV-1 Env of CAAN.A2 (HIV-1)
[14] = target: HIV-1 Env of UG037.8 (HIV-1)
[15] = target: HIV-1 Env of CAP45.G3 (HIV-1)
[16] = target: HIV-1 Env of Q168.a2 (HIV-1)
[17] = target: HIV-1 Env of Q259.d2.17 (HIV-1)
[18] = target: HIV-1 Env of SC422.8 (HIV-1)
[19] = target: HIV-1 Env of CAP244.D3 (HIV-1)
[20] = target: HIV-1 Env of DU156.12 (HIV-1)
[21] = target: HIV-1 Env of REJO.67 (HIV-1)
[22] = target: HIV-1 Env of 3016.V5.c36 (HIV-1)
[23] = target: HIV-1 Env of CM244.ec1 (HIV-1)
[24] = target: HIV-1 Env of CNE3 (HIV-1)
[25] = target: HIV-1 Env of Q842.d12 (HIV-1)
[26] = target: HIV-1 Env of C1080.c3 (HIV-1)
[27] = target: HIV-1 Env of ZM249.1 (HIV-1)
[28] = target: HIV-1 Env of 6405.v4.c34 (HIV-1)
[29] = target: HIV-1 Env of WITO.33 (HIV-1)
[30] = target: HIV-1 Env of ZM135.10a (HIV-1)
[31] = target: HIV-1 Env of TRJO.58 (HIV-1)
[32] = target: HIV-1 Env of TRO.11 (HIV-1)
[33] = target: HIV-1 Env of Q461.e2 (HIV-1)
[34] = target: HIV-1 Env of 0260.v5.c36 (HIV-1)
[35] = target: HIV-1 Env of MB539.2B7 (HIV-1)
[36] = target: HIV-1 Env of 6535.3 (HIV-1)
[37] = target: HIV-1 Env of CAP256.SU (HIV-1)
[38] = target: HIV-1 Env of TH976.17 (HIV-1)
[39] = target: HIV-1 Env of PVO.04 (HIV-1)
[40] = target: HIV-1 Env of THRO.18 (HIV-1)
[41] = target: HIV-1 Env of RW020.2 (HIV-1)
[42] = target: HIV-1 Env of ZM197.7 (HIV-1)
[43] = target: HIV-1 Env of AC10.29 (HIV-1)
[44] = target: HIV-1 Env of ZM109.4 (HIV-1)
[45] = target: HIV-1 Env of Q23.17 (HIV-1)
[46] = target: HIV-1 Env of ZM214.15 (HIV-1)
[47] = target: HIV-1 Env of MB201 (HIV-1)
[48] = target: HIV-1 Env of QH0692.42 (HIV-1)

CAP256-VRC26.28 (antibody)
IC50 (neutralization, TZM-bl) [1]: 0.075 µg/mL
IC50 (neutralization, TZM-bl) [2]: 0.76 µg/mL
IC50 (neutralization, TZM-bl) [3]: > 50 µg/mL
IC50 (neutralization, TZM-bl) [4]: < 0.6 ng/mL
IC50 (neutralization, TZM-bl) [5]: > 50 µg/mL
IC50 (neutralization, TZM-bl) [6]: > 50 µg/mL
IC50 (neutralization, TZM-bl) [7]: > 50 µg/mL
IC50 (neutralization, TZM-bl) [8]: 0.044 µg/mL
IC50 (neutralization, TZM-bl) [9]: < 0.6 ng/mL
IC50 (neutralization, TZM-bl) [10]: > 50 µg/mL
IC50 (neutralization, TZM-bl) [11]: 2 ng/mL
IC50 (neutralization, TZM-bl) [12]: < 0.6 ng/mL
IC50 (neutralization, TZM-bl) [13]: > 50 µg/mL
IC50 (neutralization, TZM-bl) [14]: > 50 µg/mL
IC50 (neutralization, TZM-bl) [15]: 0.016 µg/mL
IC50 (neutralization, TZM-bl) [16]: 3 ng/mL
IC50 (neutralization, TZM-bl) [17]: 0.012 µg/mL
IC50 (neutralization, TZM-bl) [18]: > 50 µg/mL
IC50 (neutralization, TZM-bl) [19]: > 50 µg/mL
IC50 (neutralization, TZM-bl) [20]: 0.171 µg/mL
IC50 (neutralization, TZM-bl) [21]: > 50 µg/mL
IC50 (neutralization, TZM-bl) [22]: 8 ng/mL
IC50 (neutralization, TZM-bl) [23]: 0.64 µg/mL
IC50 (neutralization, TZM-bl) [24]: > 50 µg/mL
IC50 (neutralization, TZM-bl) [25]: 0.779 µg/mL
IC50 (neutralization, TZM-bl) [26]: 0.012 µg/mL
IC50 (neutralization, TZM-bl) [27]: 0.082 µg/mL
IC50 (neutralization, TZM-bl) [28]: > 50 µg/mL
IC50 (neutralization, TZM-bl) [29]: > 50 µg/mL
IC50 (neutralization, TZM-bl) [30]: > 50 µg/mL
IC50 (neutralization, TZM-bl) [31]: > 50 µg/mL
IC50 (neutralization, TZM-bl) [32]: > 50 µg/mL
IC50 (neutralization, TZM-bl) [33]: 1.59 µg/mL
IC50 (neutralization, TZM-bl) [34]: > 50 µg/mL
IC50 (neutralization, TZM-bl) [35]: 29.4 µg/mL
IC50 (neutralization, TZM-bl) [36]: > 50 µg/mL
IC50 (neutralization, TZM-bl) [37]: < 0.6 ng/mL
IC50 (neutralization, TZM-bl) [38]: > 50 µg/mL
IC50 (neutralization, TZM-bl) [39]: 6 µg/mL
IC50 (neutralization, TZM-bl) [40]: > 50 µg/mL
IC50 (neutralization, TZM-bl) [41]: > 50 µg/mL
IC50 (neutralization, TZM-bl) [42]: 0.193 µg/mL
IC50 (neutralization, TZM-bl) [43]: > 50 µg/mL
IC50 (neutralization, TZM-bl) [44]: > 50 µg/mL
IC50 (neutralization, TZM-bl) [45]: 0.005 µg/mL
IC50 (neutralization, TZM-bl) [46]: 6.85 µg/mL
IC50 (neutralization, TZM-bl) [47]: > 50 µg/mL
IC50 (neutralization, TZM-bl) [48]: > 50 µg/mL

CAP256-VRC26.29 (antibody)
IC50 (neutralization, TZM-bl) [1]: 0.072 µg/mL
IC50 (neutralization, TZM-bl) [2]: 0.684 µg/mL
IC50 (neutralization, TZM-bl) [3]: > 50 µg/mL
IC50 (neutralization, TZM-bl) [4]: < 0.6 ng/mL
IC50 (neutralization, TZM-bl) [5]: > 50 µg/mL
IC50 (neutralization, TZM-bl) [6]: > 50 µg/mL
IC50 (neutralization, TZM-bl) [7]: > 50 µg/mL
IC50 (neutralization, TZM-bl) [8]: 0.046 µg/mL
IC50 (neutralization, TZM-bl) [9]: 1 ng/mL
IC50 (neutralization, TZM-bl) [10]: > 50 µg/mL
IC50 (neutralization, TZM-bl) [11]: 3 ng/mL
IC50 (neutralization, TZM-bl) [12]: < 0.6 ng/mL
IC50 (neutralization, TZM-bl) [13]: > 50 µg/mL
IC50 (neutralization, TZM-bl) [14]: > 50 µg/mL
IC50 (neutralization, TZM-bl) [15]: 0.076 µg/mL
IC50 (neutralization, TZM-bl) [16]: 7 ng/mL
IC50 (neutralization, TZM-bl) [17]: 0.019 µg/mL
IC50 (neutralization, TZM-bl) [18]: > 50 µg/mL
IC50 (neutralization, TZM-bl) [19]: > 50 µg/mL
IC50 (neutralization, TZM-bl) [20]: 0.136 µg/mL
IC50 (neutralization, TZM-bl) [21]: > 50 µg/mL
IC50 (neutralization, TZM-bl) [22]: 12 ng/mL
IC50 (neutralization, TZM-bl) [23]: 1.13 µg/mL
IC50 (neutralization, TZM-bl) [24]: > 50 µg/mL
IC50 (neutralization, TZM-bl) [25]: 1.69 µg/mL
IC50 (neutralization, TZM-bl) [26]: 0.009 µg/mL
IC50 (neutralization, TZM-bl) [27]: 0.093 µg/mL
IC50 (neutralization, TZM-bl) [28]: > 50 µg/mL
IC50 (neutralization, TZM-bl) [29]: > 50 µg/mL
IC50 (neutralization, TZM-bl) [30]: > 50 µg/mL
IC50 (neutralization, TZM-bl) [31]: > 50 µg/mL
IC50 (neutralization, TZM-bl) [32]: > 50 µg/mL
IC50 (neutralization, TZM-bl) [33]: 2 µg/mL
IC50 (neutralization, TZM-bl) [34]: > 50 µg/mL
IC50 (neutralization, TZM-bl) [35]: 13.3 µg/mL
IC50 (neutralization, TZM-bl) [36]: > 50 µg/mL
IC50 (neutralization, TZM-bl) [37]: < 0.6 ng/mL
IC50 (neutralization, TZM-bl) [38]: > 50 µg/mL
IC50 (neutralization, TZM-bl) [39]: 4 µg/mL
IC50 (neutralization, TZM-bl) [40]: > 50 µg/mL
IC50 (neutralization, TZM-bl) [41]: > 50 µg/mL
IC50 (neutralization, TZM-bl) [42]: 0.136 µg/mL
IC50 (neutralization, TZM-bl) [43]: 20.4 µg/mL
IC50 (neutralization, TZM-bl) [44]: > 50 µg/mL
IC50 (neutralization, TZM-bl) [45]: 0.023 µg/mL
IC50 (neutralization, TZM-bl) [46]: 13.6 µg/mL
IC50 (neutralization, TZM-bl) [47]: > 50 µg/mL
IC50 (neutralization, TZM-bl) [48]: > 50 µg/mL
